Patent US20220259593A1, “CONTROL OF MAMMALIAN GENE DOSAGE USING CRISPR” (The Regents of the University of California, priority 2019, published 2022)
Substitutions are numbered along the chain they refer to.

B1: cr254 (nucleic acid)
guide: GTTTAAGAGCTAAGCTGGAAACAGCATAGCAAGTTTAAATAAGGCTAGTCCGTTATCAACTTGAAAAAGTGGCACACAGTGTGTGCT
modifications: listed as DNA, chemistry not fully specified
B2: cr183 (nucleic acid)
guide: B1 guide with C45T, G48A, A65G, A76C, C77G, G81C, T82G
modifications: listed as DNA, chemistry not fully specified
B3: cr959 (nucleic acid)
guide: B1 guide with C60T, T62C, A67T, G69C, A76C, C77G, G81C, T82G
modifications: listed as DNA, chemistry not fully specified
B4: cr430 (nucleic acid)
guide: B1 guide with G44A, C50T, C60A, G69T, C77G, G81C
modifications: listed as DNA, chemistry not fully specified
B5: cr940 (nucleic acid)
guide: B1 guide with T34C, T61G, A68C, A76C, C77G, G81C, T82G
modifications: listed as DNA, chemistry not fully specified
B6: cr814 (nucleic acid)
guide: B1 guide with C73G, A74T, A76C, C77G, G81C, T82G, T84A, G85C
modifications: listed as DNA, chemistry not fully specified
B7: cr098 (nucleic acid)
guide: B1 guide with A6C, A8T, A76C, C77G, G81C, T82G
modifications: listed as DNA, chemistry not fully specified
B8: cr101 (nucleic acid)
guide: B1 guide with A74G, A76C, C77G, G81C, T82G
modifications: listed as DNA, chemistry not fully specified
B9: cr427 (nucleic acid)
guide: B1 guide with C57A, A76C, C77G, G79A, G81C, T82G
modifications: listed as DNA, chemistry not fully specified
B10: cr342 (nucleic acid)
guide: B1 guide with C57T, A65T, A76C, C77G, G81C, T82G
modifications: listed as DNA, chemistry not fully specified
B11: cr240 (nucleic acid)
guide: B1 guide with T56A, A76C, C77G, G81C, T82G
modifications: listed as DNA, chemistry not fully specified
B12: cr124 (nucleic acid)
guide: B1 guide with A32T, A42T, A76C, C77G, G81C, T82G
modifications: listed as DNA, chemistry not fully specified
B13: cr177 (nucleic acid)
guide: B1 guide with T40G, A76C, C77G, G81C, T82G
modifications: listed as DNA, chemistry not fully specified
B14: cr493 (nucleic acid)
guide: B1 guide with T49C, T56C, C57A, A76C, C77G, G81C, T82G
modifications: listed as DNA, chemistry not fully specified
B15: cr120 (nucleic acid)
guide: B1 guide with A65G, A76C, T82G
modifications: listed as DNA, chemistry not fully specified
B16: cr620 (nucleic acid)
guide: B1 guide with C45G, G48C, C73A, A76T, C77G, G81C, T82A, G85T
modifications: listed as DNA, chemistry not fully specified
B17: cr530 (nucleic acid)
guide: B1 guide with T49C, T53A, A66C, A76C, C77G, G81C, T82G
modifications: listed as DNA, chemistry not fully specified
B18: cr599 (nucleic acid)
guide: B1 guide with T49C, T61G, A76C, C77G, G81C, T82G
modifications: listed as DNA, chemistry not fully specified
B19: cr675 (nucleic acid)
guide: B1 guide with T34C, A59C, T70G, A76C, C77G, G81C, T82G
modifications: listed as DNA, chemistry not fully specified
B20: cr548 (nucleic acid)
guide: B1 guide with C75A, A76C, C77G, G81C, T82G
modifications: listed as DNA, chemistry not fully specified
B21: cr824 (nucleic acid)
guide: B1 guide with A65C, A76C, C77G, T80G, G81C, T82G
modifications: listed as DNA, chemistry not fully specified
B22: cr369 (nucleic acid)
guide: B1 guide with C60A, A76C, C77G, G81C, T82G
modifications: listed as DNA, chemistry not fully specified
B23: cr659 (nucleic acid)
guide: B1 guide with A38C, A76C, C77G, G81C, T82G
modifications: listed as DNA, chemistry not fully specified
B24: cr765 (nucleic acid)
guide: B1 guide with T62G, A67C, A76T, T82A
modifications: listed as DNA, chemistry not fully specified
B25: cr190 (nucleic acid)
guide: B1 guide with T54A, C57T, A76C, C77G, T80A, G81C, T82G
modifications: listed as DNA, chemistry not fully specified
B26: cr016 (nucleic acid)
guide: B1 guide with A6T, A76C, C77G, G81C, T82G
modifications: listed as DNA, chemistry not fully specified
B27: cr265 (nucleic acid)
guide: B1 guide with C45T, A76C, C77G, G81C, T82G
modifications: listed as DNA, chemistry not fully specified
B28: cr071 (nucleic acid)
guide: B1 guide with A6C, A8G, A76C, C77G, G81C, T82G
modifications: listed as DNA, chemistry not fully specified
B29: cr770 (nucleic acid)
guide: B1 guide with T34C, C73A, A76C, C77G, G81C, T82G, G85T
modifications: listed as DNA, chemistry not fully specified
B30: cr399 (nucleic acid)
guide: B1 guide with A76C, C77G, G81C, T82C
modifications: listed as DNA, chemistry not fully specified
B31: cr611 (nucleic acid)
guide: B1 guide with T56G, C57A, A76C, C77G, G79A, G81C, T82G
modifications: listed as DNA, chemistry not fully specified
B32: cr175 (nucleic acid)
guide: B1 guide with A58C, A76C, C77G, G81C, T82G
modifications: listed as DNA, chemistry not fully specified
B33: cr166 (nucleic acid)
guide: B1 guide with T34C, C73T, A76C, C77G, G81C, T82G, G85A
modifications: listed as DNA, chemistry not fully specified
B34: cr150 (nucleic acid)
guide: B1 guide with C75G, A76C, C77G, G81C, T82G
modifications: listed as DNA, chemistry not fully specified
B35: cr072 (nucleic acid)
guide: B1 guide with T3C, A8T, A76C, C77G, G81C, T82G
modifications: listed as DNA, chemistry not fully specified
B36: cr511 (nucleic acid)
guide: B1 guide with A28T, A31C, A76C, C77G, A78C, G81C, T82G
modifications: listed as DNA, chemistry not fully specified
B37: cr724 (nucleic acid)
guide: B1 guide with A58G, A76C, C77G, G81C, T82G
modifications: listed as DNA, chemistry not fully specified
B38: cr317 (nucleic acid)
guide: B1 guide with A42T, A76C, C77G, G81C, T82G
modifications: listed as DNA, chemistry not fully specified
B39: cr682 (nucleic acid)
guide: B1 guide with G44C, C45G, G48C, C50G, A76C, C77G, G81C, T82G
modifications: listed as DNA, chemistry not fully specified
B40: cr255 (nucleic acid)
guide: B1 guide with T34C, C73G, A76C, C77G, G81C, T82G, G85C
modifications: listed as DNA, chemistry not fully specified
B41: cr005 (nucleic acid)
guide: B1 guide with T2C, A76C, C77G, G81C, T82G
modifications: listed as DNA, chemistry not fully specified

System: K562 CRISPRi cells
Experiment: Constant region variant library pooled growth screen, K562
Type: cell-based, human
Settings: sgRNA constant region variants; activity relative to the original, un-modified constant region cr995
Summary of the method: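 Pooled library transduced into K562 CRISPRi cells in duplicate, puromycin-selected, grown at >2000× coverage and sampled after 4 to 8 days. Phenotypes per targeting sequence:constant region pair were normalized to the unmodified-scaffold pairing to give relative activity.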

| Molecule | Mean relative activity |
| --- | --- |
| B1 | 0.5503 |
| B2 | 1.047 |
| B3 | 0.5251 |
| B4 | 0.5328 |
| B5 | 0.5399 |
| B6 | 1.048 |
| B7 | 0.534 |
| B8 | 1.048 |
| B9 | 0.5383 |
| B10 | 0.5422 |
| B11 | 1.046 |

Same assay, conditions: sgRNA constant region variants; relative to the original, un-modified constant region cr995; CRISPRi

| Molecule | Mean relative activity |
| --- | --- |
| B12 | 0.4757 |
| B13 | 0.4771 |
| B14 | 0.4736 |
| B15 | 0.5005 |
| B16 | 0.4842 |
| B17 | 0.4998 |
| B18 | 0.5112 |
| B19 | 0.5084 |
| B20 | 0.513 |
| B21 | 0.499 |
| B22 | 0.4754 |
| B23 | 0.504 |
| B24 | 0.4931 |
| B25 | 0.5036 |
| B26 | 0.4876 |
| B27 | 0.5157 |
| B28 | 0.475 |
| B29 | 0.4771 |
| B30 | 0.4727 |
| B31 | 0.4954 |
| B32 | 0.4914 |
| B33 | 0.5245 |
| B34 | 0.523 |
| B35 | 0.5236 |
| B36 | 0.5247 |
| B37 | 0.5177 |
| B38 | 0.5027 |
| B39 | 0.4794 |
| B40 | 0.5097 |
| B41 | 0.5108 |
